This data set concerns Escherichia coli TOP10. In words: shrunken log2 fold change of peptide-encoding DNA abundance (4.5 h post-induction vs induction); higher = less antimicrobial activity (less host growth inhibition). Conditions: time post-induction: 4.5 h; library: site-saturation at positions 5, 18, 19, 20.

The source of these data is the supplement of paper PMC9112550, “Optimization of the antimicrobial peptide Bac7 by deep mutational scanning” (BMC Biology, 2022).
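Further: peptides expressed intracellularly from a pBAD plasmid library in pooled LB shake-flask culture, induced with 0.3% L-arabinose, DNA abundance read by NGS, three biological replicates, DESeq2 with apeglm shrinkage.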

Take RRIRHRPPRLPRPRPRPKEEPRP: the “shrunken log2 fold change” value is -0.0523. The result for RRIRWRPPRLPRPRPRPDHEPRP reads -0.0396.

Turning to RRIRNRPPRLPRPRPRPYPIPRP, the “shrunken log2 fold change” value is -0.0592. The result for RRIRVRPPRLPRPRPRPGLGPRP reads 0.134. The result for RRIRKRPPRLPRPRPRPFLDPRP reads 0.0893; that for RRIRHRPPRLPRPRPRPIECPRP, 0.0039. For RRIRWRPPRLPRPRPRPYCGPRP the value was -0.187; for RRIRVRPPRLPRPRPRPSISPRP, -0.357; for RRIRCRPPRLPRPRPRPTNCPRP, -0.282. Consider RRIRTRPPRLPRPRPRPAYFPRP, for which the “shrunken log2 fold change” value amounted to 0.0144. For RRIRFRPPRLPRPRPRPSWGPRP the value was -0.243; for RRIRRRPPRLPRPRPRPSKGPRP, -0.518; for RRIRWRPPRLPRPRPRPFHMPRP, -0.138. Regarding RRIRCRPPRLPRPRPRPGVDPRP, the “shrunken log2 fold change” value was -0.0475.

Consider RRIRQRPPRLPRPRPRPRENPRP, for which the “shrunken log2 fold change” value amounted to 0.0469. For RRIRERPPRLPRPRPRPSSNPRP the value was -0.0512; for RRIRMRPPRLPRPRPRPQTYPRP, 0.144.

Take RRIRWRPPRLPRPRPRPPNSPRP: the “shrunken log2 fold change” value worked out at 0.39. The result for RRIRMRPPRLPRPRPRPMSIPRP reads -0.0109. The result for RRIRHRPPRLPRPRPRPFLGPRP reads 0.0354; that for RRIRHRPPRLPRPRPRPHTRPRP, -0.174.

Take RRIRKRPPRLPRPRPRPGCCPRP: the “shrunken log2 fold change” value turned out to be 0.722.

RRIRSRPPRLPRPRPRPSLVPRP: the “shrunken log2 fold change” value is -0.345. For RRIRIRPPRLPRPRPRPFMHPRP the value was -0.0575; for RRIRSRPPRLPRPRPRPAWIPRP, -0.0375; for RRIRVRPPRLPRPRPRPPITPRP, -0.117.

Turning to RRIRVRPPRLPRPRPRPISTPRP, the “shrunken log2 fold change” value was -0.112. The result for RRIRRRPPRLPRPRPRPDNRPRP reads 0.0484. The result for RRIRFRPPRLPRPRPRPDWAPRP reads 0.0526; that for RRIRDRPPRLPRPRPRPDTHPRP, 0.17; that for RRIRRRPPRLPRPRPRPIDVPRP, -0.00284.

RRIRVRPPRLPRPRPRPEYWPRP: the “shrunken log2 fold change” value is -0.161. For RRIRERPPRLPRPRPRPARMPRP the value was 0.0587; for RRIRVRPPRLPRPRPRPTWSPRP, 0.0201. For RRIRTRPPRLPRPRPRPPWEPRP the value was 0.506. For RRIRSRPPRLPRPRPRPHVSPRP the value was -0.0482; for RRIRSRPPRLPRPRPRPMSSPRP, -0.313.

For RRIRQRPPRLPRPRPRPSPIPRP, the “shrunken log2 fold change” value was -0.0339. For RRIRKRPPRLPRPRPRPRKHPRP the value was 0.328; for RRIRARPPRLPRPRPRPSKAPRP, -0.151. As for RRIRGRPPRLPRPRPRPILGPRP, the “shrunken log2 fold change” value was -0.0749. The result for RRIRWRPPRLPRPRPRPLTMPRP reads 0.0382. Take RRIRSRPPRLPRPRPRPLDSPRP: the “shrunken log2 fold change” value is -0.0139. The result for RRIRMRPPRLPRPRPRPYNKPRP reads -0.561.

As for RRIRSRPPRLPRPRPRPRHMPRP, the “shrunken log2 fold change” value was -0.0166. With RRIRSRPPRLPRPRPRPGSFPRP, the “shrunken log2 fold change” value is 0.209.

As to RRIRIRPPRLPRPRPRPGAGPRP, the “shrunken log2 fold change” value is 0.29. For RRIRKRPPRLPRPRPRPKMVPRP the value was -0.031. For RRIRGRPPRLPRPRPRPQPWPRP the value was 0.68; for RRIRWRPPRLPRPRPRPVPHPRP, 0.271.
